Laboratory results from the supplement of paper PMC9112550, “Optimization of the antimicrobial peptide Bac7 by deep mutational scanning” (BMC Biology, 2022).

System: Escherichia coli TOP10
Assay: shrunken log2 fold change of peptide-encoding DNA abundance (4.5 h post-induction vs induction); higher = less antimicrobial activity (less host growth inhibition)
Conditions: time post-induction: 4.5 h; library: site-saturation at positions 5, 18, 19, 20
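Also: peptides expressed intracellularly from a pBAD plasmid library in pooled LB shake-flask culture, induced with 0.3% L-arabinose, DNA abundance read by NGS, three biological replicates, DESeq2 with apeglm shrinkage.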

RRIRKRPPRLPRPRPRPIAGPRP
shrunken log2 fold change: -0.0506

RRIRIRPPRLPRPRPRPDAKPRP
shrunken log2 fold change: 0.0898

RRIRFRPPRLPRPRPRPIWHPRP
shrunken log2 fold change: -0.0746

RRIRKRPPRLPRPRPRPQYDPRP
shrunken log2 fold change: -0.212

RRIRPRPPRLPRPRPRPLYAPRP
shrunken log2 fold change: 0.0267

RRIRMRPPRLPRPRPRPVMHPRP
shrunken log2 fold change: 0.154

RRIRCRPPRLPRPRPRPTEWPRP
shrunken log2 fold change: 0.063

RRIRSRPPRLPRPRPRPPHVPRP
shrunken log2 fold change: 0.113

RRIRSRPPRLPRPRPRPWNHPRP
shrunken log2 fold change: -0.0307

RRIRSRPPRLPRPRPRPKTMPRP
shrunken log2 fold change: 0.0109

RRIRIRPPRLPRPRPRPFELPRP
shrunken log2 fold change: -0.138

RRIRQRPPRLPRPRPRPHFWPRP
shrunken log2 fold change: -0.0983

RRIRTRPPRLPRPRPRPRLMPRP
shrunken log2 fold change: 0.119

RRIRSRPPRLPRPRPRPSMHPRP
shrunken log2 fold change: 0.402

RRIRNRPPRLPRPRPRPCTDPRP
shrunken log2 fold change: 0.233

RRIRTRPPRLPRPRPRPIDPPRP
shrunken log2 fold change: -0.201

RRIRERPPRLPRPRPRPCTRPRP
shrunken log2 fold change: 0.0517

RRIRVRPPRLPRPRPRPRWQPRP
shrunken log2 fold change: 0.0341

RRIRNRPPRLPRPRPRPERQPRP
shrunken log2 fold change: 0.221

RRIRNRPPRLPRPRPRPDCQPRP
shrunken log2 fold change: 0.0461

RRIRYRPPRLPRPRPRPLLMPRP
shrunken log2 fold change: -0.547

RRIRCRPPRLPRPRPRPPWQPRP
shrunken log2 fold change: 0.389

RRIRTRPPRLPRPRPRPMYPPRP
shrunken log2 fold change: 0.0537

RRIRWRPPRLPRPRPRPAGQPRP
shrunken log2 fold change: 0.218

RRIRIRPPRLPRPRPRPMHEPRP
shrunken log2 fold change: -0.0221

RRIRYRPPRLPRPRPRPVWSPRP
shrunken log2 fold change: -0.337

RRIRCRPPRLPRPRPRPLCPPRP
shrunken log2 fold change: -0.254

RRIRKRPPRLPRPRPRPSANPRP
shrunken log2 fold change: 0.0126

RRIRWRPPRLPRPRPRPFDNPRP
shrunken log2 fold change: -0.114

RRIRYRPPRLPRPRPRPSHLPRP
shrunken log2 fold change: -0.286

RRIRTRPPRLPRPRPRPVNNPRP
shrunken log2 fold change: -0.0819

RRIRWRPPRLPRPRPRPTPYPRP
shrunken log2 fold change: 0.284

RRIRSRPPRLPRPRPRPRMEPRP
shrunken log2 fold change: 0.0338

RRIRKRPPRLPRPRPRPMTYPRP
shrunken log2 fold change: -0.212

RRIRKRPPRLPRPRPRPMTPPRP
shrunken log2 fold change: 0.334

RRIRLRPPRLPRPRPRPGDPPRP
shrunken log2 fold change: 0.251

RRIRCRPPRLPRPRPRPMFCPRP
shrunken log2 fold change: -0.237

RRIRIRPPRLPRPRPRPAAHPRP
shrunken log2 fold change: -0.0526

RRIRLRPPRLPRPRPRPIEFPRP
shrunken log2 fold change: -0.449

RRIRGRPPRLPRPRPRPATIPRP
shrunken log2 fold change: 0.138

RRIRPRPPRLPRPRPRPEICPRP
shrunken log2 fold change: 0.0345

RRIRERPPRLPRPRPRPEYAPRP
shrunken log2 fold change: -0.143

RRIRLRPPRLPRPRPRPILLPRP
shrunken log2 fold change: -0.235

RRIRHRPPRLPRPRPRPSALPRP
shrunken log2 fold change: -0.243

RRIRIRPPRLPRPRPRPGAIPRP
shrunken log2 fold change: -0.0678

RRIRIRPPRLPRPRPRPGIEPRP
shrunken log2 fold change: -0.154

RRIRNRPPRLPRPRPRPGAPPRP
shrunken log2 fold change: 0.492

RRIRVRPPRLPRPRPRPQGCPRP
shrunken log2 fold change: -0.0651

RRIRKRPPRLPRPRPRPTLSPRP
shrunken log2 fold change: 0.0214

RRIRQRPPRLPRPRPRPCRVPRP
shrunken log2 fold change: -0.306

RRIRARPPRLPRPRPRPRNIPRP
shrunken log2 fold change: 0.157

RRIRHRPPRLPRPRPRPNTCPRP
shrunken log2 fold change: -0.53

RRIRRRPPRLPRPRPRPEIEPRP
shrunken log2 fold change: 0.216

RRIRDRPPRLPRPRPRPRNVPRP
shrunken log2 fold change: 0.0903

RRIRQRPPRLPRPRPRPYLWPRP
shrunken log2 fold change: -0.0736

RRIRRRPPRLPRPRPRPAWSPRP
shrunken log2 fold change: 0.321

RRIRVRPPRLPRPRPRPMPYPRP
shrunken log2 fold change: 0.122

RRIRMRPPRLPRPRPRPDFTPRP
shrunken log2 fold change: 0.463

RRIRERPPRLPRPRPRPVSQPRP
shrunken log2 fold change: -0.0404

RRIRMRPPRLPRPRPRPNQLPRP
shrunken log2 fold change: 0.0894
